Measured values: the nanobody polyreactivity screen of Harvey et al. (2022)

Experiment: yeast display, Sf9 membrane polyspecificity reagent, FACS + sequencing; frameworks hold sequencing errors
Summary of the method: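 Nanobodies came from a synthetic yeast display library in Saccharomyces cerevisiae BJ5465, induced with galactose for 36–48 hours and stained for 1 hour at 4 °C with 10% biotinylated, detergent-solubilized Sf9 membrane reagent. Cells were enriched on streptavidin microbeads and then FACS-sorted, with low and high (top ~1%) gates set on anti-HA fluorescence for expression and streptavidin fluorescence for reagent binding. Each polyreactivity label reflects the gate a clone came from. Genes were amplified by colony PCR, sequenced by MiSeq 2 × 250 and filtered by CDR length.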

Row | Sequence | polyreactivity (PSR sort gate)
1 | QVQLVESGGGLVQAGGSLRLSCAASGSIFWPNAMGWYRQAPGKERELVAAISWGTGSTYYADSVKGRFTISRDNAKNTVYLQMNSLKPEDTAVYYCAADGAYLDPYYDYWGQGTQVTVLS | low polyreactivity
2 | QVQLVESGGGLVQAGGSLRLSCAASGSIFYLYAMGWYRPAPGKERELVAAISRSGASTYYADSVKGRFTISRDNAKNTVYLQMNSLKPEDTAVYYCAAYKIWGRVRYDYWGQGTQVTVSS | low polyreactivity
3 | QVQLLESGGGLVQAGGSLRLSCAASGSTYSRYDMGWYRPAPGKERELVAAISRSGGSTYYADSVKGRFTISRDNAKNTVYLQMNSLKPEDTAGYYCAAYLPYRQGRYGYEYWGQGTQVNVSS | high polyreactivity
4 | QVQLVESGGGLVQAGGSLRLICPASGSTFQYYAMGWYRQAPGKEREFVAAIRSSGGTTYYADSVKGRFTISRDNAKKTVYLQMNSLKPEDTAVYYCATVVNYPSARYCYWGQGTKVTVSS | high polyreactivity
5 | QVQLVESGGGLVQAGGSLRLSCAASGRIISSYAMGWYRQAPGKERELVAAITSSGGSTYYADSVKGRFTISRDNAKNTVYLQMNSLKPEDTAVYYCAARVFARYYTAYGVETRREEDYWGQGTQLTVSS | low polyreactivity
6 | QVQLVESGGGLVQAGGSLRLSCAASGFIFQPNAMGWYRQAPGKERELVAVITWSGGSTYYADSVKGRFTISRDNAKNTVYLQMNSLKPEDTAVYYCAVDGAYDQKPTDLKGYYYWGQGTQVTVSS | low polyreactivity
7 | QVQLVESGGGLVQAGGSLRLSCAASGSTFYLYAKVWYRQAPGKERELVAAISWSGGDTYYADSVKGRFTISRDKAKNTVYLQMNSLKPEDTAVYYCAAEISYSSPGSPRRRDYWGQGTQVTVSS | low polyreactivity
8 | QVQLVESAGGLVQAGGTLRLSCAASGSIFQFYAMGWYRHAPGKERELVAVITTSGVSTYYADSVKGRFTISRDNAKNTVYLQMNSLKPEDTGVYYCAARQWTSASYDYWGQGSQVTVSS | low polyreactivity
9 | QVQLVESGGGLVQAGGSLRLSCAASGSTFYKNAMGWYRPAPGKERELVAAISGSGGRTYYADSVKGRFTISRDNAKNTVYLQMNSLKPEDTAVYYCNAARAYYSLYYGLDYWGQGTQVTVSS | high polyreactivity
10 | QVQLVESGGGLVQAGGSLRLSCAASGSTSAPNAMGWYRQAPGKERELVAAISWTGGSTSYADSVKGRFTISRDNAKNTVYLQMNSLKPPDTAVYYCAKRSYGLTRAYSAGNYWGQGTQVTVSS | low polyreactivity
11 | QVQLEESGGGLVQAGGSLRLSCAASGSTSLKNAMGWYRQAPGKERELVAAISSGGSTYYADSVKGRFTISRDNAKNTVYLQINSLKPEDTAVYYCAAKYLRGLGYWGQGTQVTVSS | high polyreactivity
12 | QVQLAESGAGLVQAGGSLRLSCAASGFTFFPYAMGWYIQAPGKERELVAGITYNGGSTYYADSVKGRFTISRDNAKNTVYLQMNSLKPEDTAVYYCNAGRIGGFDWGQGTQVTVSS | low polyreactivity
13 | QVQLVESGGGRVQAGGSLRLSCAASGSIFFIYAMGWDRQAPSKEREFVAAISYGGGSTYYADSVKGRFTISRDNAKNTVYLQMNSLKPEDTAVYYCNADVPKSLLLYYPWGYGYWGQGTQVNVSS | low polyreactivity
14 | QVQLVESGGGLVQAGGSLRLSCAASGYIFERNAMGWYRQAPGKERELVAAITDDGDDTYYADSVKGRFTISRDNAKNTVFLLMNSLKPEDTAVYYCAKDLYYGDYYYWGQGTQVTVSS | low polyreactivity
15 | QVQLVESGAGLVQAGGSLRLSCAASGFTFKSNAMGWYRQAPGKERELVATISWGGASTSYADSVKGRFTISRDNAKNNVYLQMNSLKPEDTAVYYCKVRAQRRHGGYDHWGLGTQVTVSS | low polyreactivity
16 | QVQLVESGGGLVQAGGSLRLSCAASGSIFKYYVMGWYRQAPGKERELVAAITRGGRTYYADSVKGRFTISRDNAKNTVYLQMNSLKPEDTAVYYCARSLQTTSGIIPYDYWGQGTQVTVSS | high polyreactivity
17 | QVQLVESGGGLVQAGGSLRLSCAASGRTFYANAMGWSRQAPGRERELVAAISTGGDGTYYADSVKGRFTISRDYAKITVYLQMNSLKPEDTAVYDCAVRHRASGILYYYWGQGTQVTVSS | low polyreactivity
18 | QVQLVESGGGIVQAGGSLRLSCAASGSIFARYAMGWSRPAPGKERELVAAISGRGGSTYYADSVKGRFTISRDHATNTDYLQMNSLKPEDTAVYYWNAVWDDYGFYSPYVVVEYDYWGQGTQVTVSS | high polyreactivity
19 | QVQLVESGGGLVQAGGSLRLSCAASGRIFWYYPMGGYRQAPGKEREYVATINTSGGSTYYADSVKGRFTISRDNAKNTVYLQMNRLKPEDTAVYYCNAAYRFYRTEYYSWGQGTQVTVSS | low polyreactivity
20 | QVQLVESGGGLVQAGGSLRLSCAACGRTFYNYAMGWYRQAPGKERELVAAITRGGSTYYADSVKGRFTISRDNAKNTVYLQMNSLKPEDTAVYYCNAVFPYEHEEYDYWGQGTQVTVSS | high polyreactivity
21 | QVQLVESGGGLVQAGGSLRLSCAASGITFSRYAMGWYRQAPGKERELVAAITSSGGSTYYADSVKGRFTISRDNAKNTVYLQMNSLKPEDTAVYYCAATSYYTREQYYYWGQGTQVTVSS | high polyreactivity
22 | QVQLVESGGGLVQAGGSLRLICAASGRIFRVYAMGWYRQSPGKERELVAAISSRGGRTYYADSVKGRFTISRDNAKNTVYLQMKSMIPEDTAVYYCAADGRSSSRTTYRYDYWGQGTQVTVSS | high polyreactivity

Row | Sequence | polyreactivity (PSR sort gate)
23 | QVQLVESGGGLVQAGGSLRLSCAASGFTFPSYAMGWYRQAPGKERELVAAISSRGGSTYYADSVKGRFTISRDNAKNTVYLQMNSLKPEDTAVYYCNRLQVYSYYPYYPWYNYWGQGTQVTVSS | high polyreactivity
24 | QVQLVESGGGLVQAGGSLRLSCAASGFTFYWYDMGWYRQAPGKEWELVATMSPGGGTNYADSVKGRFTISRDNAKNTVSLQMNSLKPEDTSVYYCAADGSAGYQWGYDFEGDYWGQGTQLTVSS | high polyreactivity
25 | QLQLQESGGGLVQAGGSLRLSSAASGTISPLPAMGLYSQATGKERELVPGIDTGAITNYADSVKGRFTISRDNAKHTVYLQMNSLKPEDTAVYYCAVFPAAYDYYERYYTEWGQGTQVTVSS | high polyreactivity
26 | QVQLVESGGGLVQAGGSLRLSCAASGSIFYVYAMGWYRQAPGKERELVADITTRDGDTYYADSVKGRFTISRDNAKNTVYLQMNSLKPVDTAVYYCAADLNAYPQRAYDYWGQGTQLTVSS | low polyreactivity
27 | QVQLVESGGGLVQAGGSLRLSCAASGSIFDYYTMGWYRQAPGKERELVAAITRSGGRTYYADSVKGRFTISRDYAKNTDYLLMNSLKPEDTAVYNCSTGAVSRFGNGPYDFWGQGTQVTVSS | high polyreactivity
28 | QVQHVESGGGLVQAGGSLRLSCAASGSIFVNNAMGWYRQAPGKERELVAAIRRSGGNTYYADSVKGRFTISRDNAKNTVYLQMNSLKPEDTAVYYCNVVRRADSIRAKSRDYWGQGTQVTVSS | high polyreactivity
29 | QVQLVDSGGGLVQAGGTLRLSCAASGRTFSSYAMGWYIQAPGKERELVSAISWSGGITYYADSVKVRFTISRDNAKNTVYLQMNSLKPEDTAVYYCAVALTRRKSYEYSGGFWGQGTQVTVSS | high polyreactivity
30 | QVQLVESGGALLQAGGSLRLSCAASGSIFRFYAMGWYRQAPGKERELVARISGGGTTNYADSVKGRFTISRDNAKYTVYLQKNSQKPDDTAVYYCAAGCLYLPIWYPRWRYEYWGQGTQVTVSS | low polyreactivity
31 | QVQLVESGGGLVQAGGSLRLSCSASGFTFNYNAMGWYRQAPGKERELVASITRSGGRTYYADSVKGRFTISRDNAKITVYLQMNSLKPEDTAVYYCAAEVWYSLSYRVYGGYDFWGQGTQVTVSS | high polyreactivity
32 | QVQLVESGGGLVQAGGSLRLSCAASGFTFVGNAMGWYRQAPGKERELVAAITSGGSTYYADSVKGRFTISRDNAKNTVYLQMNSLKPEDTAVYYCATGGRGGRRYEYWGQGTQVTVSS | low polyreactivity
33 | QVQLVESGGGLVQAGGSLRLSCAASGYTLGPNTMGWYRQAPGKERELVATITYSGGSTYYADSVKGRFTISRDNAKNTVYLQMNSLKPEDTAVYYCAARYGSRRIPGSLGYWGQGTQVTVSS | high polyreactivity
34 | QVQLVESGGGLVHAGGSLRLSCAASGFTFRYGMGWYRQAPRKERELVAAISNTGGSTYYADSVKGRFTISRDNAKNTVYLKMNSLKPEDTSVYYCAAAGGLWWVFYALDYWGQGTQVSVSS | low polyreactivity
35 | QVQLVESGGGLVHAGGSLRLSCAASGGTFSLNAMGWYRKAPGTERELVAAISKRSSTTYYADSVKGRFTISRDNAKNTVYLQMNSLKPEDTSVYYCAARVLRSRKPGRGYDYWGQGTQVTVSS | high polyreactivity
36 | QVQLVESGGGLVQVGGSLRLSCAASGGIFSGNAMGWYRQAPGKERELVAGITNCGRTSYADSVKGRFTISRDNAKNTDYFQMNSLKPEDTAVYYCNAKVGAYLNYGYWGQGTQVTVSS | low polyreactivity
37 | QVQLVESGGGLVQAGGSLRLSCAASGSIFKANGMGWYRQAPGKEREFVAAITRSGATTYYADSVKGRFTISRDNAKNTVYLQMNSLKPEDTAVYYCNVKAWRDLYYAGFDYWGQGTQVTVSS | low polyreactivity
38 | QVQLVESGGGLVQAGGSLRLSCAASGRIFYPYSMGWYRQAPGKERELVATITYIGGSTYADSVKGRFTISRDNAKNTVYLQMNSLKPEDTAVYYCAASETYFRFPFGIYYYWGQGTQVTVSS | low polyreactivity
39 | QVQLVESGGGLVQAGGSLRLSCAASGRTFIRNAMGWYRQAPGKERELVAAISRGGGTYYADSVKGRFTISRDNAKNTVYLQMNSLKPEDTAVYYCAAGFRSPYYWGQGTQVTVSS | high polyreactivity
40 | QVQLVESGGGLVQAGGSLRLSWAASGITLHGYAMGWYRQAPGKERELVAAITGSGGRTYYADSVKGRFTISRDNAKNTVYLQMNSLKPEDTAVYYCNAGAVYWGYSRGWYERDYWGQGTQVTVSS | high polyreactivity
41 | QVQLVESGGGLVQAGGSLRLSCAASGFTFLKNAMVWYRQAPGKERELVAAITGSGGSTYYADSVKGRFTISRDNAKNTVYLQMNSLKPEDTAVYYCNVRRGLRAYEYWGQGTQVTVSS | high polyreactivity
42 | QVQLVESGGGLVQAGGSLRLSCAASGSIFTYYAMGWYRQAPGKERELVAAISSDGGRTFYADSVKGRFTISRDNAKNTVYLQMNSLKPEDTAVYYCAAETNRFPGYGYWGQGTQVTVSA | low polyreactivity
43 | QVELVESGGGLVQAGGSLRLSCAASGITFYVYTMGWYRQAPGKERELVAAINGSGGSTNYADSVKGRFTISRDIAKNTVFLQMNSLKPEDSAVYYCAADWSLRLYDYWGQGTQVTVSS | low polyreactivity
